Data as given in the supplement of paper PMC12042874.
± gives the uncertainty stated by the source.

Test: amyloid nucleation score (Sup35N fusion, yeast selection) (log enrichment); library NNK3; higher = more nucleation; inactive = no reads after selection
In short: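 The nucleation score is the log enrichment of output over input reads, calculated with DiMSum and centred on the mode score of non-aggregating sequences. Sequences with under 100 input reads were excluded. Reads came from Illumina sequencing of plasmid inserts from psi-negative yeast expressing Sup35N fused to peptides of 20 random codons, induced 24 hours with 100 μM copper sulfate and grown 7 days at 30°C without adenine and uracil.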

Substance	amyloid nucleation score
SFYNCTEVETHGRRICIFLY	inactive
SGAEDFQV	inactive
SGALAKDVSVGVCVRPARLY	0.653 ± 0.19
SGATLLC	inactive
SGATVLSLSMY	inactive
SGFILSCMLNPGTFTNDLMG	inactive
SGFYRENARILTV	inactive
SGGNLWGFVDTLFIGMRIRY	inactive
SGISFTCMRHEMVSLTGGL	inactive
SGKHPSYNREPKGSVSVLGA	inactive
SGLDMRYHWNFVICQATRSY	inactive
SGLKMCYLSTGEKSAHAGEV	inactive
SGLSDPPPLLE	inactive
SGMLDWDWVSRVSIGVCKVW	inactive
SGRRCKAICA	inactive
SGRVSTDEKLVKFLRN	inactive
SGSLPMRTMLFP	inactive
SGTGNGKIPMDRSVSDCVRE	0.035 ± 0.37
SGVSWTRPIWYLNWFTQSLW	inactive
SGVYHRICSISLYQVSMR	inactive
SGVYLNVIWNCDIGDING	1.49 ± 0.12
SGVYLTNNVWGFLYRATISG	inactive
SGWTTQVRNKDGWASQLVSE	inactive

Substance	amyloid nucleation score
SGYRIRVIHNMWAVGVKKRN	-0.487 ± 0.78
SHHSL	inactive
SHLDGYICYCPLLKRWIDYR	-0.035 ± 0.59
SHNLSWDIGHLGIV	inactive
SHSNKSMRVNALSKWLY	inactive
SHYFK	inactive
SIAIHWTLICGLYLSNSSRA	inactive
SICTLFACHAFAGRYTTQGG	1.04 ± 0.2
SIDGMWTMYRRSVKYGDQFH	inactive
SIDIVVVWTGAIQDFRVLCL	-0.594 ± 1.1
SIEMQYNDMRLR	inactive
SIFIFYRYVFWRFMCDAVFS	inactive
SIFIMHGRMKF	1.47 ± 0.072
SIFLDEIDFKIT	0.409 ± 0.16
SIGVTCAPNNLHGCLILYRF	inactive
SIGWSMFDNSMVREIRTRTC	inactive
SIIGGWCGNE	inactive
SIIRNKFVAMNMNSVNM	0.831 ± 0.095
SINDLGLWNVTVKFLCK	-0.037 ± 0.63
SIPRRNRDGLAWNARHNLQY	inactive
SIRISLEISGYSELSITFSC	inactive
SISAKVGSSGRLGRSPYRVD	inactive
SISQTIVCTRPRVSAMIWFC	inactive

Substance	amyloid nucleation score
SISWRYATTSDVSLWIFVQT	inactive
SITDESASPPSRWKLGRFR	inactive
SITRELGNETLYSLLGPRAF	inactive
SIVHGMA	inactive
SIVSRLF	inactive
SIWKISTRMQTFFCRNM	1.46 ± 0.1
SKACAVLAYNLVGFEFHFEF	1.69 ± 0.074
SKALVSLWFLISMMNPYFIR	inactive
SKARQEL	inactive
SKDGSSSTRQVTIVGRVLVF	inactive
SKFRFGRVNLNVT	inactive
SKHIIFSFIGDLI	0.654 ± 0.11
SKPLYNSWIPMCLLFKVPPF	inactive
SKPSYFHNFLFDKMSDRLCT	inactive
SKPYYYMVYIESEVVVYLFG	inactive
SKRFAIAEQVCNSF	inactive
SKRFSLGI	inactive
SKSHLTIVSSYDHFHYMVRV	inactive
SKSLMMDLCTYCHYLNVYRE	inactive
SKTGGFFNAVHASCPGVPLQ	inactive
SKTVDNGKMRKDWLGRQPWK	-0.362 ± 0.51
SLAIMCCKIWPLLIMYILIT	inactive
SLCTSEYFHSTYRNITGLVL	inactive

Substance	amyloid nucleation score
SLCWSLNGFNLLISFDFRRN	0.785 ± 0.14
SLGMMVWVH	inactive
SLGSVVTSFASEMWTADGTR	inactive
SLIFQDGGDNVNDLKVCVDY	inactive
SLIGSRGPLNSGEVMMMLFK	inactive
SLIITTLTHEYCMCHRIWST	2.25 ± 0.071
SLISNCPIVWNRIWISYHFH	0.738 ± 0.3
SLISSALDIISDRYGLHVNN	inactive
SLIWPSYDYLDNFLGYYSLK	inactive
SLKFIELDMSIVVMSSDYFR	inactive
SLKRHQTWLDGVEVRVVYMP	inactive
SLLDDRSPGLWILKTKVTAF	inactive
SLLGSEGVSLIFLHYYWWSA	inactive
SLLTFCFHIESLWMWYWMCH	inactive
SLMSFRYLRTFKWRSMSILS	inactive
SLMSSATICTFMG	inactive
SLNEHNAGGIVTLHWQSIES	inactive
SLNKWVGCRSRIRWDLGTQF	inactive
SLPLCWAMAKGSISHRMERY	inactive
SLPWVIF	inactive
SLRWLISESAMRVKTMWRGG	inactive
SLSSIGSDFNGGC	inactive
SLSSSWFFNISSNADMPCYN	inactive

Substance	amyloid nucleation score
SLTLGCSDLGKGCREETYAG	inactive
SLVEAGMFTQFS	inactive
SMADHAESLNSSGSNRQQLG	inactive
SMAMFIFMITLVCYFKDSPW	inactive
SMDTSTPTIV	inactive
SMDVKHRR	inactive
SMFKLMRP	inactive
SMGVFAKRRKGRWNTYSIKA	inactive
SMIKPAIFGYNVMLVPYINC	inactive
SMKQMNMQHSSPRNRTDGRR	inactive
SMKVEEIICGFAVVYIDTMY	0.256 ± 0.28
SMNACSRNGLGMWKVMDLFT	inactive
SMNFLLLISMCNLWPSYAAL	1.36 ± 0.14
SMNFVLLRGGRRMIQQDRVR	inactive
SMPRAEHSDVSCYAHYFSFR	inactive
SMSNQSSTFDSLLFRQWLVV	inactive
SMSTN	inactive
SMYDKGMGYTCVKSSVNLFV	inactive
SMYVYPFELVSVDGRLVRTA	inactive
SNCFQYECMSWSWDYLHECW	inactive
SNCGL	0.832 ± 0.28
SNDCRVTVTVFSIGRDSYVL	2.28 ± 0.089
SNDMRGLVGEEIGFLSWN	inactive

Substance	amyloid nucleation score
SNDNGTHVSNYRALSSDREK	inactive
SNGNMLRSYVSTPCDRGKGS	inactive
SNITSCLNSQRKMDLAFYRV	inactive
SNLVGCKLIHV	inactive
SNNLKLAPGSWVPYSDRIHR	inactive
SNPHDDSHDVILVFLVLGRC	inactive
SNRGVADLDLRGLWTARE	inactive
SNRQSSGISF	-0.784 ± 2.5
SNRVRMSFLLADVYCNQTEV	-0.183 ± 0.42
SNSMPSGNSRMVCCRDPSFP	inactive
SNSMS	inactive
SNSSHRRYYGHVRRNL	inactive
SNTFRTIGS	inactive
SNWEFYDRYTYRRLGLEQKV	inactive
SPLSVGEHSEMWLRLVFG	inactive
SPPKAAKCICAISSWSLWWT	inactive
SPPSQYSVDQIFHMSWLVYY	inactive
SPQFELLDITKPCRT	inactive
SPRVSMYMSSQKGLEPWESV	inactive
SPTLRFGRQKFRQCGVKRVS	1.35 ± 0.11
SPVRVDWFSKRFSGYVMRTM	inactive
SPYVYRTWFRTLEYCTRDDM	inactive
SQCFIY	-0.514 ± 0.78

Substance	amyloid nucleation score
SQCGLTHSLVVGGSSVNTHT	inactive
SQCRVYN	inactive
SQFQGAMMYFCEEMCICFFC	2.01 ± 0.097
SQFTFNCTIFNGL	2.65 ± 0.064
SQKRPMCFSCWTHMVFHSWF	-0.257 ± 0.46
SQLLYI	inactive
SQVFTVALNVPNNR	inactive
SRACSTHCIFEGTWSG	inactive
SRCSSGRLCWRFASHSRGTS	-0.826 ± 1.4
SRCWGDILPLNIQYLMR	inactive
SRECLRKLDVSNSTRIK	-0.097 ± 0.24
SRFLLRNCPFLSGHVFTSQT	inactive
SRFLRMASGYWSN	inactive
SRGLFTNGVASFRRVCGLPW	inactive
SRITLPDIIMFHCMFNGTDV	0.339 ± 0.67
SRLNFVCRGGSSAVFRRKAH	inactive
SRMLVSKLWKNMGLVSSAYL	inactive
SRNFTRHILHDLHYAGILKA	inactive
SRPAYSRRFMLTGDITVIKL	1.66 ± 0.071
